Experiment [1] concerns the target T1, glutathione S-transferase (GST) (UniProt P08515 1-218 = GST).
T1 construct: also called carrier protein GST
Nature of the experiment: ELISA, Ab 0.250 µg/ml. The method, then: (§1) The rabbit monoclonal anti-human Id3 (clone #3-3) and the rabbit monoclonal anti-mouse/human Id3 (clones #6-1, 16-1, 17-3, and 42-1) produced in Example 6 were tested reactivity against the following antigens: mouse Id1:His, human Id1:His, mouse Id2:His, human Id2:His, mouse Id3:His, human Id3:His, mouse Id4:His, human Id4:His and GST.
(§2) 1. Microtiter wells (prepared in accordance with Example 6) were coated (0.1 μg/well) with mouse Id1:His, human Id1:His, human Id2:His, human Id3:His, and 1.0 μg/well with GST. [0155] 2. Antibody Diluent: 0.25% (w/v) BSA in 0.015M KPO₄ Buffer, 0.85% (w/v) NaCl, 0.1% (w/v) NaN₃, pH=7.40 [0156] 3. Rabbit monoclonal anti-human Id3 (clone #3-3) prepared in Example 7 was diluted to […] with the antibody diluent. […] 4. Rabbit monoclonal anti-mouse/human Id3 (clones #6-1, 16-1, 17-3, 42-1) prepared in Example 7 was diluted to 0.005, 0.010, 0.025, 0.05, 0.10, 0.25, and 0.50 μg/ml with the antibody diluent. […] 5. Conjugate Diluent: 50% (v/v) which consists of an aqueous solution containing Fetal Bovine Serum in 0.05 M Tris, 1% (v/v) Proclin-300, pH 7.6. [0159] 6. Conjugate: Goat anti-rabbit IgG (H+L)-HRP conjugate. [0160] 7. TMB reagent. […] 8. Stop solution (1 N HCI). Method
(§3) 1. Dispense 100 μL of antibody diluent, diluted rabbit monoclonal human Id3, and mouse/human Id3 hybridoma supernatants into appropriate wells. […] 2. Incubate at room temperature with mechanical shaking at 750 rpm for 90 minutes. [0165] 3. Remove the incubation mixture by flicking plate content into an appropriate waste container followed by rinsing the wells 5 times with distilled water. [0166] 4. Strike the wells sharply onto absorbent paper or paper towels to remove all residual water droplets. [0167] 5. Dispense 100 μL of 1:50,000 Goat Anti-Rabbit IgG-HRP Conjugate Reagent into each well. Gently mix for 5 seconds. [0168] 6. Incubate at room temperature with mechanical shaking at 750 rpm for 90 minutes. [0169] 7. Repeat procedures 3 and 4. [0170] 8. Dispense 100 μL of TMB Reagent into each well. Gently mix for 5 seconds. [0171] 9. Incubate at room temperature with mechanical shaking at 750 rpm for 20 minutes. […] 10.
For orientation: ELISA stands for enzyme-linked immunosorbent assay.

Experiment [2] concerns the target T2, Human Id1: Histidine (human, UniProt P41134 1-155, limits assumed).
T2 construct: Fusion protein made in E. coli from vector pGW07; also called h-Id1: his; not shown: His tag
T2 sequence (looked up): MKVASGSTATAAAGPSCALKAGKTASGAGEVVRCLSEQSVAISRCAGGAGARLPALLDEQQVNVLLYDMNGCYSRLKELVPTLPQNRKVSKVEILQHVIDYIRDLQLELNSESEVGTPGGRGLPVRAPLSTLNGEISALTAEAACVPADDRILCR
Nature of the experiment: ELISA, Ab 0.250 µg/ml. As to the method: as §1, §2, §3

The target of the next experiment is T3, Mouse Id2: Histidine (mouse, UniProt P41136 1-134, limits assumed).
T3 construct: Fusion protein made in E. coli from vector pGW07; also called m-Id2: His; not shown: His tag
T3 sequence (looked up): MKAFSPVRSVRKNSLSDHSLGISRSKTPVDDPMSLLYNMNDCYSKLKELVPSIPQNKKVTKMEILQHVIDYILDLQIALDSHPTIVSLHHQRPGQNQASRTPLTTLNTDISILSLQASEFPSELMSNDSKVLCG
Put plainly: ELISA, Ab 0.250 µg/ml. As to the method:
as §1, §2, §3

Experiment [3] has as its target T4, Mouse Id1: Histidine (mouse, UniProt P20067-2 1-148, limits assumed).
T4 construct: Fusion protein made in E. coli from vector pGW07; also called m-Id1-His; not shown: His tag
T4 sequence (looked up): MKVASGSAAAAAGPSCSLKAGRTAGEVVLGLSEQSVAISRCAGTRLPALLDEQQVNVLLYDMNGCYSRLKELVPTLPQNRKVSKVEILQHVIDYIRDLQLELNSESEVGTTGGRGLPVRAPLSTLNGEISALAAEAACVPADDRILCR
Nature of the experiment: ELISA, Ab 0.250 µg/ml. As to the method:
as §1, §2, §3

For another experiment, the target named is T5, Human Id2: Histidine (human, UniProt Q02363 1-134, limits assumed).
T5 construct: Fusion protein made in E. coli from vector pGW07; also called h-Id2: His; not shown: His tag
T5 sequence (looked up): T3 sequence (looked up) with T60S, V131A
Put plainly: ELISA, Ab 0.000 µg/ml (blank). The method, then:
as §1, §2, §3

Experiment [4] addresses T1, glutathione S-transferase (GST). Put plainly: ELISA, Ab 0.000 µg/ml (blank). The method, then:
as §1, §2, §3

Experiment [5] deals with T2, Human Id1: Histidine. Nature of the experiment: ELISA, Ab 0.000 µg/ml (blank). The method, then: as §1, §2, §3
The target in experiment [6] is T4, Mouse Id1: Histidine. Nature of the experiment: ELISA, Ab 0.000 µg/ml (blank). As to the method:
as §1, §2, §3

A further experiment addresses T6, Human Id3: Histidine (human, UniProt Q02535 1-119 at identity 1.00)).
T6 construct: Fusion protein made in E. coli from vector pGW07; also called h-Id3: His; Human Id3 (coated wells); not shown: His tag
T6 chain: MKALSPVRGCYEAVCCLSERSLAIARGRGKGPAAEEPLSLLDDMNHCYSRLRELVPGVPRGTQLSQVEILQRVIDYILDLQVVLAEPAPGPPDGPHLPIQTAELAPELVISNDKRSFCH
Put plainly: ELISA, Ab 0.250 µg/ml. As to the method: as §1, §2, §3

Another experiment addresses T7, Mouse Id3: Histidine (mouse, UniProt P41133 1-119).
T7 construct: Fusion protein made in E. coli from vector pGW07; also called m-Id3: His; Mouse Id3 (coated wells); not shown: His tag
T7 sequence: T6 chain with G31S, A33S, A34T, A105T, N112K
Put plainly: ELISA, Ab 0.250 µg/ml. The method, then: as §1, §2, §3

Residue numbers refer to the chain shown, from its start.

T1 sequence (P08515 whole entry): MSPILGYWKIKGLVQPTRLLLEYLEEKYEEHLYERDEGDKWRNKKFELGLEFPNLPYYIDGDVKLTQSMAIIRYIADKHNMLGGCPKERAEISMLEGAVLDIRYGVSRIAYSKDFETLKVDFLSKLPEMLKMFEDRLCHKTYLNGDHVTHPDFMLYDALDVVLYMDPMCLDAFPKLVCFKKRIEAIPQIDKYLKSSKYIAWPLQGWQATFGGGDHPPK

B1: rabbit monoclonal anti-human Id3, clone #BCH-4/#3-3 (antibody, V domains shown)
VH: QSVEESGGRLVTPGTPLTLTCTVSGIDLSSYAMSWVRQAPGKGLEWIGVIFPSNNVYYASWAKGRFTISKTSTTVDLKITSPTTEDTATYFCASMGAFDSWGPGTLVTVSS
VL: QVLTQTPSPVSAAVGGTVTINCQASQSIYNDNDLAWFQQKPGQPPKLLIYDASTLTSGVPSRFKGSGSGTQFTLTISDLDCDDAATYYCAARYSGNIYGFGGGTEVVVK
notes: Rabbit IgG from a rabbit hybridoma; also called h Id3 MoAb 3-3
On to B1, for which the A450 is 0.048 A450 in experiment [1]; 0.047 A450 with Human Id1: Histidine [2]; 0.051 A450 with Mouse Id2: Histidine; 0.048 A450 in the experiment with Mouse Id1: Histidine [3]; 0.043 A450 in the experiment with Human Id2: Histidine; 0.044 A450 in [4]. Besides, the A450 with Human Id1: Histidine [5] was found to be 0.046 A450; with Mouse Id1: Histidine [6], 0.047 A450.

B2: rabbit monoclonal anti-mouse/human Id3, clone #BCH-4/#16-1 (antibody, V domains shown)
VH: QSVEESGGRLVTPGTPLTLTCTASGFSLSSYYIHWVRQAPGKALEWIGYISDGGTTYYASWAKGRFTISKTSSTTVDLKMTSLTTEDTATYFCARQGFNIWGPGTLVTVSL
VL: AVLTQTPSPVSAAVGGTVTISCQSSQSVYNNNWLSWFQQKSGQPPKLLIYETSKLESGVPSRFKGSGSGTQFTLTIIDVQCDDAATYYCLGGYWTTSDNNIFGGGTEVVVK
notes: Rabbit IgG from a rabbit hybridoma; also called m/h Id3 MoAb 16-1
With B2, the A450 with Human Id3: Histidine turned out to be 2.83 A450; with Mouse Id3: Histidine, 3.21 A450; in experiment [1] it was 0.048 A450; with Human Id1: Histidine [2], 0.045 A450; with Mouse Id2: Histidine, 0.063 A450; with Mouse Id1: Histidine [3], 0.047 A450. Moreover, the A450 with Human Id2: Histidine was found to be 0.049 A450; in [4], 0.048 A450; with Human Id1: Histidine [5], 0.043 A450; with Mouse Id1: Histidine [6] it was 0.044 A450.

B3: rabbit monoclonal anti-mouse/human Id3, clone #BCH-4/#6-1 (antibody, V domains shown)
VH: B2 VH with S30N, Y31V, A43G, G54D, T56A, Y57R, S60T, D77N
VL: B2 VL with T19S, Y29W, S41P, I77S, I101V
notes: Rabbit IgG from a rabbit hybridoma; also called m/h Id3 MoAb 6-1
As for B3, the A450 turned out to be 3.02 A450 in the experiment with Human Id3: Histidine; 3.42 A450 in the experiment with Mouse Id3: Histidine; 0.051 A450 in [1]; 0.051 A450 with Human Id1: Histidine [2]; 0.062 A450 in the experiment with Mouse Id2: Histidine; 0.048 A450 with Mouse Id1: Histidine [3]. Moreover, the A450 with Human Id2: Histidine amounted to 0.045 A450; in experiment [4] it was 0.047 A450; in the experiment with Human Id1: Histidine [5], 0.045 A450; with Mouse Id1: Histidine [6], 0.045 A450.

B4: rabbit monoclonal anti-mouse/human Id3, clone #BCH-4/#17-3 (antibody, V domains shown)
VH: B2 VH with S30N, Y31V, A43G, G54D, T56A, Y57R, S60T, D77N
VL: B2 VL with T19S, Y29W, S41P, I77S, I101V
notes: Rabbit IgG from a rabbit hybridoma; also called m/h Id3 MoAb 17-3; BCH-3/#17-3
With B4, the A450 in the experiment with Human Id3: Histidine was 3.32 A450; in the experiment with Mouse Id3: Histidine it was 3.62 A450; in experiment [1] it was 0.052 A450; with Human Id1: Histidine [2] it was 0.045 A450; with Mouse Id2: Histidine, 0.064 A450; with Mouse Id1: Histidine [3], 0.052 A450. Moreover, the A450 amounted to 0.043 A450 with Human Id2: Histidine, 0.046 A450 in experiment [4], 0.045 A450 in the experiment with Human Id1: Histidine [5] and 0.045 A450 with Mouse Id1: Histidine [6].

B5: rabbit monoclonal anti-mouse/human Id3, clone #BCH-4/#42-1 (antibody, V domains shown)
VH: B2 VH
VL: B2 VL with T95S
notes: Rabbit IgG from a rabbit hybridoma; also called m/h Id3 MoAb 42-1
With B5, the A450 in the experiment with Human Id3: Histidine is 3.31 A450; with Mouse Id3: Histidine, 3.55 A450; in experiment [1], 0.051 A450; in the experiment with Human Id1: Histidine [2], 0.044 A450; with Mouse Id2: Histidine, 0.063 A450; with Mouse Id1: Histidine [3], 0.054 A450. Further, the A450 was determined as 0.044 A450 in the experiment with Human Id2: Histidine, 0.048 A450 in [4], 0.043 A450 with Human Id1: Histidine [5] and 0.052 A450 in the experiment with Mouse Id1: Histidine [6].

These data come from patent US20070178531A1 (BIOCHECK, published 2007).
